B1: Hairpin Ribozyme (parent)
chain: GUCCUCUUUCACGUGCGCGUGAAAGAGAGAAGUGAACCAGAGAAACACACGUUGUGGUAUAUUACCUGGUA

Self-cleavage data for 38 variants are collected here from the RNAGym collection of RNA variant scans (doi:10.7554/elife.80360).

Variants of B1 are the subject of the series. Kind of series: self-cleavage, relative activity (ratio to wild type); higher = more cleavage; co-transcriptional.
For GUCCUCUUGCACGUGCGCGUGAAAGAGAGAAGUGAACCAGAGAAACACACGUUGUGGAAUAUUACCUGGUA [U9G U58A], the self-cleavage was found to be 0.549.
Then GUCCUCUUUAACGUGCGCGUGAAAGAGAGAUGUGAACCAGAGAAACACACGUUGUGGUAUAUUACCUGGUA [C10A A31U], with 0.112; and GUCCUCUUUAACGUGCGCGUGAAAGAGAGAGGUGAACCAGAGAAACACACGUUGUGGUAUAUUACCUGGUA [C10A A31G], with 0.533.
Then GUCCUCUUGCACGUGCGCGUGAAAGAGAGAAGUGAACCAGAGAAACACACGUUGUGGUAUAUUACUUGGUA [U9G C66U], with 0.429.
For the variant GUCCUCUUUAACGUGCGCGUGAAAGAGGGAAGUGAACCAGAGAAACACACGUUGUGGUAUAUUACCUGGUA [C10A A28G], the self-cleavage turned out to be 1.09.
On to GUCCUCUUUAACGUGCGCGUGAAAGAGUGAAGUGAACCAGAGAAACACACGUUGUGGUAUAUUACCUGGUA [C10A A28U], for which the self-cleavage worked out at 0.483.
Take GUCCUCUUGCACGUGCGCGUGAAAGAGAGAAGGGAACCAGAGAAACACACGUUGUGGUAUAUUACCUGGUA [U9G U33G]: the self-cleavage is 0.145.
Then GUCCUCUUCCACGUGCGCGUGAAAGAGAGAAGUGAACCAGAGAAACACACGUAGUGGUAUAUUACCUGGUA [U9C U53A], with 1.19.
Then GUCCUCUUUAUCGUGCGCGUGAAAGAGAGAAGUGAACCAGAGAAACACACGUUGUGGUAUAUUACCUGGUA [C10A A11U], with 0.41; and GUCCUCUUGCACGUGCCCGUGAAAGAGAGAAGUGAACCAGAGAAACACACGUUGUGGUAUAUUACCUGGUA [U9G G17C], with 0.379.
Then GUCCUCUUCCACGUGCGCGUGAAAGAGAGAAGUGAACCAGAGAAACACACGUUGUGGUAUAUCACCUGGUA [U9C U63C], with 0.133; and GUCCUCUUGCACGUGCGCGUGAAAGAUAGAAGUGAACCAGAGAAACACACGUUGUGGUAUAUUACCUGGUA [U9G G27U], with 0.171; and GUCCUCUUGCACGUGCGCGUGAAAGAAAGAAGUGAACCAGAGAAACACACGUUGUGGUAUAUUACCUGGUA [U9G G27A], with 0.332.
Regarding GUCCUCUUGCACGUGCGCGUGAAAGAGAGAAGUGAACCAGAGAAACACACGUUCUGGUAUAUUACCUGGUA [U9G G54C], the self-cleavage was 0.341.
Then GUCCUCUUGCACGUGCGCGUGAAAGAGAGAAGUGAACCAGAGAAACACACGUUUUGGUAUAUUACCUGGUA [U9G G54U], with 0.52; and GUCCUCUUGGACGUGCGCGUGAAAGAGAGAAGUGAACCAGAGAAACACACGUUGUGGUAUAUUACCUGGUA [U9G C10G], with 0.375.
Then GUCCUCUUGCACGUGCGCGUGAAAGAGAGAAGUGAACCAGACAAACACACGUUGUGGUAUAUUACCUGGUA [U9G G42C], with 0.239.
Next, GUCCUCUUGCACGUGCGCGUGAAAGAGAGAAGUGAACCAGAAAAACACACGUUGUGGUAUAUUACCUGGUA [U9G G42A]: 0.109.
For the variant GUCCUCUUGCACGUGCGGGUGAAAGAGAGAAGUGAACCAGAGAAACACACGUUGUGGUAUAUUACCUGGUA [U9G C18G], the self-cleavage stood at 0.801.
Next, GUCCUCUUCCACGUGCGCGUGAAAGAGAGAAGUGAACCAGAGAAACACACGUUGUGGUAUAUUACCAGGUA [U9C U67A]: 0.174.
As for GUCCUCUUGCACGAGCGCGUGAAAGAGAGAAGUGAACCAGAGAAACACACGUUGUGGUAUAUUACCUGGUA [U9G U14A], the self-cleavage turned out to be 0.612.
Then GUCCUCUUGCACGUGCGCGUGAAAGAGAGAAGUGAACCAGAGAAACACACGUUGUGGUAUAUUACCUGGCA [U9G U70C], with 0.72; and GUCCUCUUGCACGUGCGCGUGAAAGAGAGAAGUGAACCAGAGAAACACACGUUGUGGUAUAUUACCUGGAA [U9G U70A], with 0.812.
Then GUCCUCUUGCACGUGCGCUUGAAAGAGAGAAGUGAACCAGAGAAACACACGUUGUGGUAUAUUACCUGGUA [U9G G19U], with 0.546.
Next, GUCCUCUUGCACGUGCGCGUGAAAGAGAGAAGUGAACCAGAGAAACACACCUUGUGGUAUAUUACCUGGUA [U9G G51C]: 0.614.
Take GUCCUCUUCCACGUGCGCGUGAAAGAGAGAAGUGAACCAGAGAAACACACGUUGUGGUAAAUUACCUGGUA [U9C U60A]: the self-cleavage was determined as 0.769.
As to GUCCUCUUGCACGUGCGCGUGAAAGAGAGAGGUGAACCAGAGAAACACACGUUGUGGUAUAUUACCUGGUA [U9G A31G], the self-cleavage was found to be 0.549.
Next, GUCCUCUUGCACGUGCGCGUGAAAGAGAGACGUGAACCAGAGAAACACACGUUGUGGUAUAUUACCUGGUA [U9G A31C]: 0.0438.
Then GUCCUCUUGCACGUGCGCGCGAAAGAGAGAAGUGAACCAGAGAAACACACGUUGUGGUAUAUUACCUGGUA [U9G U20C], with 0.682; and GUCCUCUUGCACGUGCGCGAGAAAGAGAGAAGUGAACCAGAGAAACACACGUUGUGGUAUAUUACCUGGUA [U9G U20A], with 0.531; and GUCCUCUUGCACGUGCGCGUGAAAGAGAGAAGUGAACCAGAGAAACACACGUUGUGGUAUAUGACCUGGUA [U9G U63G], with 0.206.
Next, GUCCUCUUGCACGUGCGCGUGAAAGAGAGAAGUGAACCAGAGAAACACACGUUGUGGUAUAUCACCUGGUA [U9G U63C]: 0.094; GUCCUCUUGCACGUGCGCGUGAAAGAGAGCAGUGAACCAGAGAAACACACGUUGUGGUAUAUUACCUGGUA [U9G A30C]: 0.206.
Regarding GUCCUCUUGCACGUGCGCGUGAAAGAGAGUAGUGAACCAGAGAAACACACGUUGUGGUAUAUUACCUGGUA [U9G A30U], the self-cleavage is 0.0546.
Turning to GUCCUCUUGCACGUGCGCGUGAACGAGAGAAGUGAACCAGAGAAACACACGUUGUGGUAUAUUACCUGGUA [U9G A24C], the self-cleavage came to 0.318.
Then GUCCUCUUCCACGUGCGCGUGAAAGAGAGAAGUGAACCAGAGAAACACACGUUGUGGUAUAUUACCUGGAA [U9C U70A], with 0.669.
Then GUCCUCUUGCACGUGCGCGUGAAAGAGAGAAGUGAACCAGCGAAACACACGUUGUGGUAUAUUACCUGGUA [U9G A41C], with 0.693; and GUCCUCUUGCACGUGCGCGUGAAAGAGAGAAGUGAACCAGAGAAACACACGUUGUGGUAUAUUACCGGGUA [U9G U67G], with 0.279.
